What all share (assay): cell-based or functional assay
For assay [1], the target named is hGLP-1R (Homo sapiens, UniProt P43220).
The target of assay [2] is T1, human GIP receptor (human) (UniProt P48546).
T1 sequence (looked up): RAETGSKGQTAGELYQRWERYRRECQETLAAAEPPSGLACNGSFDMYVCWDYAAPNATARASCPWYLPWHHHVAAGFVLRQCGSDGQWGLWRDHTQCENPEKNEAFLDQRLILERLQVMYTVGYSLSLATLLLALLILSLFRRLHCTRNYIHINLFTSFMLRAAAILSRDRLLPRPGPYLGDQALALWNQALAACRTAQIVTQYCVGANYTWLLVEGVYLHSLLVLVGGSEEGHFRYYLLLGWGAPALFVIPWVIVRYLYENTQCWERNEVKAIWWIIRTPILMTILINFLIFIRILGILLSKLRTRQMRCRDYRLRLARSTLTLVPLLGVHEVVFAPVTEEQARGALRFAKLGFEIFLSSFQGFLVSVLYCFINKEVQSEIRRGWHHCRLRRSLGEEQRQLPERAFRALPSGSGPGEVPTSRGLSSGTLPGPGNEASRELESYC

In assay [3] the target is human glucagon receptor (human) (UniProt P47871).
Chain of human glucagon receptor (human) (P47871 26-477): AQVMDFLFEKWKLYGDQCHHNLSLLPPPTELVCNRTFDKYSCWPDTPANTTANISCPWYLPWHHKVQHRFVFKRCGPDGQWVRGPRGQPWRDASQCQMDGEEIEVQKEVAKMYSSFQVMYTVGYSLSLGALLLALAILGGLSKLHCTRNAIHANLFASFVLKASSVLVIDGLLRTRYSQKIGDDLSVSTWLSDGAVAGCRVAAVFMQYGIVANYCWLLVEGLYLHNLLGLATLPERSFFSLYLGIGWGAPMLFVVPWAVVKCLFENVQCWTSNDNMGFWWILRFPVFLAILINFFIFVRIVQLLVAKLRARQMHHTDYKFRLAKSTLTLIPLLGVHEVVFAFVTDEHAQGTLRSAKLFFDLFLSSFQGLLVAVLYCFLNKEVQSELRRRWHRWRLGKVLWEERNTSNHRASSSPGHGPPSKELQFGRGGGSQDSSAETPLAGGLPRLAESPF

Chain of hGLP-1R (P43220 24-463): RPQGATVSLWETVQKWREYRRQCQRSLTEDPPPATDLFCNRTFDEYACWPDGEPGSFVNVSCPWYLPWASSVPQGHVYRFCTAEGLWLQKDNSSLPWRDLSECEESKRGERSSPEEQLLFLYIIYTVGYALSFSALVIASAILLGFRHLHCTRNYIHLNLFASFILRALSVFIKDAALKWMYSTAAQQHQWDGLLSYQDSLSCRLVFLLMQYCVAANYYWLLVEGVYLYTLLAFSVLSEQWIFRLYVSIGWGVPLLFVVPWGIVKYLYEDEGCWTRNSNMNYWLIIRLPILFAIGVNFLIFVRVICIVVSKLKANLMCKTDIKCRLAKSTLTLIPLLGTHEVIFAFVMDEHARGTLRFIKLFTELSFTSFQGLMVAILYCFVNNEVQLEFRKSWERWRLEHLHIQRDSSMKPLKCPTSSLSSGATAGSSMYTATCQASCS

B1: Example 772 (peptide)
chain: YXQGTFTSDFSQXLDKKAQXAFIEYLLAGGPSSGAPPPEGS
modifications: synthetic construct; SITE 2: note = 2-Aminoisobutyric Acid; SITE 13: note = alpha-methyl-leucine; SITE 17: note = Lysine is chemically modified through conjugation of the epsilon-amino group of the Lysine side chain with (2-[2-(2-Amino-ethoxy)-ethoxy]-acetyl)-(gamma-Glu)-CO-(CH2) 16-CO2H; SITE 20: n
In the case of B1, the Relative cAMP EC50 in assay [1] was 1.38 nM; in assay [2] it was 0.115 nM; in assay [3], 15.9 nM. The cAMP Rel EC50, nM (1% HSA) is 206 nM in assay [1], 21.6 nM in assay [2] and 1880 nM in assay [3].

B2: Example 788 (peptide)
chain: YXQGTFTSDFSQXLDKKAQXAFIEYLLEXGESSGEPPPSGS
modifications: synthetic construct; SITE 2: note = 2-Aminoisobutyric Acid; SITE 13: note = alpha-methyl-leucine; SITE 17: note = Lysine is chemically modified through conjugation of the epsilon-amino group of the Lysine side chain with (2-[2-(2-Amino-ethoxy)-ethoxy]-acetyl)-(gamma-Glu)-CO-(CH2) 16-CO2H; SITE 20: n
Regarding B2, the values for the Relative cAMP EC50 in assay [1], in assay [2] and in assay [3] were 2.5 nM, 0.0923 nM and 3.36 nM, respectively. Besides, the cAMP Rel EC50, nM (1% HSA) in assay [1] was 528 nM; in assay [2], 20.7 nM; in assay [3], 1420 nM.

B3: Example 774 (peptide)
chain: YXQGTFTSDFSQXLDKKAQXAFIEWLLEGGPSSGAPPPEGS
modifications: synthetic construct; SITE 2: note = 2-Aminoisobutyric Acid; SITE 13: note = alpha-methyl-leucine; SITE 17: note = Lysine is chemically modified through conjugation of the epsilon-amino group of the Lysine side chain with (2-[2-(2-Amino-ethoxy)-ethoxy]-acetyl)-(gamma-Glu)-CO-(CH2) 16-CO2H; SITE 20: n
In the case of B3, the Relative cAMP EC50 in assay [1] was 1.89 nM; in assay [2] it was 0.128 nM; in assay [3], 13.7 nM. Also, the cAMP Rel EC50, nM (1% HSA) in assay [1] stood at 404 nM; in assay [2], 32.8 nM; in assay [3], 2330 nM.

B4: Example 799 (peptide)
chain: YXQGTFTSDFSXXLDKKAQXAFIEYLIEXGPSSGAPPPSGS
modifications: synthetic construct; SITE 2: note = 2-Aminoisobutyric Acid; SITE 12: note = (S)-2,4-diaminobutanoic acid; SITE 13: note = alpha-methyl-leucine; SITE 17: note = Lysine is chemically modified through conjugation of the epsilon-amino group of the Lysine side chain with (2-[2-(2-Amino-ethoxy)-ethoxy]-ac)
For B4, the figures for the Relative cAMP EC50 in assay [1], in assay [2] and in assay [3] were 0.462 nM, 0.0668 nM and 1.64 nM, respectively. In addition, the cAMP Rel EC50 (1% HSA) in assay [1] stood at 179 nM; in assay [2] it was 18.4 nM; in assay [3], 574 nM.

B5: Example 775 (peptide)
chain: YXQGTFTSDFSQXLDKKAQXAFIEYLLEAGPSSGAPPPSGS
modifications: synthetic construct; SITE 2: note = 2-Aminoisobutyric Acid; SITE 13: note = alpha-methyl-leucine; SITE 17: note = Lysine is chemically modified through conjugation of the epsilon-amino group of the Lysine side chain with (2-[2-(2-Amino-ethoxy)-ethoxy]-acetyl)-(gamma-Glu)-CO-(CH2) 16-CO2H; SITE 20: n
As for B5, the Relative cAMP EC50 was determined as 0.993 nM in assay [1], 0.105 nM in assay [2] and 4.36 nM in assay [3]. The cAMP Rel EC50, nM (1% HSA) in assay [1] is 202 nM; in assay [2], 25.8 nM; in assay [3], 724 nM.

B6: Example 779 (peptide)
chain: YXQGTFTSDFSQXLDKKAQXAFIEYLLEAGPSSXAPPPSGT
modifications: synthetic construct; SITE 2: note = 2-Aminoisobutyric Acid; SITE 13: note = alpha-methyl-leucine; SITE 17: note = Lysine is chemically modified through conjugation of the epsilon-amino group of the Lysine side chain with (2-[2-(2-Amino-ethoxy)-ethoxy]-acetyl)-(gamma-Glu)-CO-(CH2) 16-CO2H; SITE 20: n
Consider B6, for which the Relative cAMP EC50 is 0.949 nM in assay [1], 0.112 nM in assay [2] and 4.58 nM in assay [3]. For the same molecule, the cAMP Rel EC50, nM (1% HSA) in assay [1] amounted to 175 nM; in assay [2], 19.3 nM; in assay [3] it was 1020 nM.

B7: Example 777 (peptide)
chain: YXQGTFTSDFSQXLDKKAQXAFIEYLLEAGPSSGAPPPSGX
modifications: synthetic construct; SITE 2: note = 2-Aminoisobutyric Acid; SITE 13: note = alpha-methyl-leucine; SITE 17: note = Lysine is chemically modified through conjugation of the epsilon-amino group of the Lysine side chain with (2-[2-(2-Amino-ethoxy)-ethoxy]-acetyl)-(gamma-Glu)-CO-(CH2) 16-CO2H; SITE 20: n
For B7, the Relative cAMP EC50 came to 0.913 nM in assay [1], 0.113 nM in assay [2] and 3.89 nM in assay [3]. In addition, the results for the cAMP Rel EC50, nM (1% HSA) in assay [1], in assay [2] and in assay [3] were 231 nM, 22.2 nM and 1320 nM, respectively.

B8: Example 780 (peptide)
chain: YXQGTFTSDFSQXLDKKAQXAFIEYLLEAGPSSXAPPPSGT
modifications: no C-terminal amide; synthetic construct; SITE 2: note = 2-Aminoisobutyric Acid; SITE 13: note = alpha-methyl-leucine; SITE 17: note = Lysine is chemically modified through conjugation of the epsilon-amino group of the Lysine side chain with (2-[2-(2-Amino-ethoxy)-ethoxy]-acetyl)-(gamma-Glu)-CO-(CH2) 16-CO2H; SITE 20: n
Consider B8, for which the Relative cAMP EC50 stood at 1.26 nM in assay [1], 0.111 nM in assay [2] and 4.84 nM in assay [3]. In addition, the cAMP Rel EC50, nM (1% HSA) in assay [1] came out at 211 nM; in assay [2], 22.1 nM; in assay [3], 1250 nM.

B9: Example 800 (peptide)
chain: YXQGTFTSDFSXXLDKKAQXAFIEYLIEXGPSSGAPPPSGS
modifications: synthetic construct; SITE 2: note = 2-Aminoisobutyric Acid; SITE 12: note = (S)-2,3-diaminopropanoic acid; SITE 13: note = alpha-methyl-leucine; SITE 17: note = Lysine is chemically modified through conjugation of the epsilon-amino group of the Lysine side chain with (2-[2-(2-Amino-ethoxy)-ethoxy]-a)
For the molecule B9, the Relative cAMP EC50 in assay [1] was found to be 0.486 nM; in assay [2] it was 0.283 nM; in assay [3], 21 nM. Besides, the cAMP Rel EC50 (1% HSA) in assay [1] came out at 164 nM; in assay [2], 40.2 nM; in assay [3], 2500 nM.

B10: Example 782 (peptide)
chain: YXQGTFTSDFSQXLDKKAQXAFIEYLLEXGPSSGAPPPSGX
modifications: synthetic construct; SITE 2: note = 2-Aminoisobutyric Acid; SITE 13: note = alpha-methyl-leucine; SITE 17: note = Lysine is chemically modified through conjugation of the epsilon-amino group of the Lysine side chain with (2-[2-(2-Amino-ethoxy)-ethoxy]-acetyl)-(gamma-Glu)-CO-(CH2) 16-CO2H; SITE 20: n
B10: the Relative cAMP EC50 in assay [1] worked out at 1.94 nM; in assay [2], 0.0711 nM; in assay [3] it was 4.96 nM. Moreover, the figures for the cAMP Rel EC50, nM (1% HSA) in assay [1], in assay [2] and in assay [3] were 354 nM, 15.5 nM and 1380 nM, respectively.

B11: Example 795 (peptide)
chain: YXQGTFTSDFSQXLDKKAQXAFIEYLIEGGESSGAPPPSGS
modifications: synthetic construct; SITE 2: note = 2-Aminoisobutyric Acid; SITE 13: note = alpha-methyl-leucine; SITE 17: note = Lysine is chemically modified through conjugation of the epsilon-amino group of the Lysine side chain with (2-[2-(2-Amino-ethoxy)-ethoxy]-acetyl)-(gamma-Glu)-CO-(CH2) 16-CO2H; SITE 20: n
In the case of B11, the Relative cAMP EC50 stood at 0.972 nM in assay [1], 0.345 nM in assay [2] and 1.77 nM in assay [3]. Besides, the cAMP Rel EC50, nM (1% HSA) turned out to be 221 nM in assay [1], 67.3 nM in assay [2] and 566 nM in assay [3].

These data come from patent US20240270821A1, “GIP/GLP1/GCG TRI-RECEPTOR AGONISTS AND USES THEREOF” (priority 2023, published 2024).
